Measurements: publication PMC6422694

Tested on: NC(=O)c1ccc[n+]([C@@H]2O[C@H](COP(=O)(O)OP(=O)(O)OC[C@H]3O[C@@H](n4cnc5c(N)ncnc54)[C@H](O)[C@@H]3O)[C@@H](O)[C@H]2O)c1
Assay: purified protein
Settings: pH 8.1

(Oryza sativa Japonica Group)
Km: 193.7 ± 98.2 µM
